{
  "source": "paper PMC2790542",
  "tested_on": "O=C(O)/C=C\\Cl",
  "assay": "purified protein",
  "settings": "active site",
  "data": [
    {"substance": "cis-3-chloroacrylic acid dehalogenase (cis-CaaD) (coryneform bacterium)", "values": [
      {"measurement": "Km", "result": "200 ± 15", "unit": "µM"},
      {"measurement": "kcat", "result": "5.9 ± 0.1", "unit": "s⁻¹"},
      {"measurement": "kcat/Km", "result": 29000, "unit": "M⁻¹ s⁻¹"}
    ]}
  ]
}
